Reference: patent US20170096485A1 (Hoffmann-La Roche, published 2017)
Read-outs that look alike come from different tables or passages of the source.

How the values were obtained:
human mesothelin [1] = target: T1, human mesothelin (human, UniProt Q13421 296-580); assay: cell-based or functional assay
human mesothelin [2] = target: T1, human mesothelin; assay: cell-based or functional assay; remark: listed apart in the source
human mesothelin [3] = target: T1, human mesothelin; assay: cell-based or functional assay; remark: listed apart in the source
human mesothelin [4] = target: T1, human mesothelin; assay: cell-based or functional assay; remark: listed apart in the source
human mesothelin [5] = target: T1, human mesothelin; assay: cell-based or functional assay; remark: listed apart in the source
human mesothelin [6] = target: T1, human mesothelin; assay: cell-based or functional assay; remark: listed apart in the source
human mesothelin [7] = target: T1, human mesothelin; assay: cell-based or functional assay; remark: listed apart in the source
human CD3 = target: T2, human CD3 (human, UniProt P07766 23-207); assay: flow cytometry on Jurkat cells, 3.8 pM-300 nM
T2 construct: also called CD3 epsilon
Procedure: (§1) Briefly, Jurkat suspension cells were harvested, counted and checked for viability. Adherent AsPC-1 cells were harvested using Cell Dissociation Buffer (Gibco, #13151014), counted, checked for viability, and re-suspended at 0.9×10⁶ cells/ml in FACS buffer (100 μl PBS 0.1% BSA). […] Cells were re-incubated for further 30 min at 4° C. with the 1:100 pre-diluted AlexaFluor 647—F(ab′)₂ Fragment Goat Anti-Human IgG, Fey fragment specific secondary antibody (Jackson Immuno Research Lab, […] #109-096-008) and thereafter washed twice with cold PBS 0.1% BSA.
(§2) The stained cells were re-suspended in 100 μl 2% paraformaldehyde-containing FACS Buffer and incubated for 30 min at room temperature to fix the staining. Finally cells were centrifuged for 4 min at 350×g and 4° C., the supernatants were discarded and the cell pellets re-suspended in 200 μl FACS Buffer. Staining was analyzed by FACS using a FACS Canto II (Software FACS Diva). Binding curves and EC50 values were obtained using GraphPadPrism6 (FIG. 8A, binding to Jurkat cells, FIG. 8B binding to AsPC-1 cells).

human mesothelin [8] = target: T1, human mesothelin; assay: flow cytometry on CHO cells transiently transfected to express human MSLN
cynomolgus mesothelin = target: T3, cynomolgus mesothelin (cynomolgus); assay: flow cytometry on CHO cells transiently transfected to express cynomolgus MSLN
T3 construct: whole, on cells; also called cynomolgus MSLN

human mesothelin [9] = target: T1, human mesothelin; assay: flow cytometry on MSLN-expressing AsPC-1 cells, 3.8 pM-300 nM, fit with GraphPad Prism6
Procedure: as §1, §2

T1 sequence (Q13421 296-588): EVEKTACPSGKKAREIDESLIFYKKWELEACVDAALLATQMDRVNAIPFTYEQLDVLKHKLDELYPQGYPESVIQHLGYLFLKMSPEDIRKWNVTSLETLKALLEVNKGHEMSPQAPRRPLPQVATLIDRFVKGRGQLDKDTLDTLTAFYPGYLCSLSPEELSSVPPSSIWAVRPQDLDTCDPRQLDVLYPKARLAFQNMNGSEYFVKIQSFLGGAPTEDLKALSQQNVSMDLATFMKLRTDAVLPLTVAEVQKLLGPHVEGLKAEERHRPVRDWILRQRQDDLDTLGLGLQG
T2 sequence (P07766 23-207 limits assumed): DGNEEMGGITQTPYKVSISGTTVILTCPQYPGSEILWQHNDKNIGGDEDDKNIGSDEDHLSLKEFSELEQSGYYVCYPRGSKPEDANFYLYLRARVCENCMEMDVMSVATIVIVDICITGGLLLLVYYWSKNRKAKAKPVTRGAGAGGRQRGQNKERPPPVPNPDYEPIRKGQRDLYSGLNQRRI

B1: MSLN TCB molecule A: '2+1 IgG CrossFab, inverted' with charge modifications (VH/VL exchange in CD3 binder, charge modification in mesothelin binders) (bispecific antibody)
heavy 1: QVQLVQSGAEVKKPGASVKVSCKASGYSFTGYTMNWVRQAPGQGLEWMGLITPYNGASSYNQKFRGKATMTVDTSTSTVYMELSSLRSEDTAVYYCARGGYDGRGFDYWGQGTLVTVSSASTKGPSVFPLAPSSKSTSGGTAALGCLVEDYFPEPVTVSWNSGALTSGVHTFPAVLQSSGLYSLSSVVTVPSSSLGTQTYICNVNHKPSNTKVDEKVEPKSCDKTHTCPPCPAPEAAGGPSVFLFPPKPKDTLMISRTPEVTCVVVDVSHEDPEVKFNWYVDGVEVHNAKTKPREEQYNSTYRVVSVLTVLHQDWLNGKEYKCKVSNKALGAPIEKTISKAKGQPREPQVCTLPPSRDELTKNQVSLSCAVKGFYPSDIAVEWESNGQPENNYKTTPPVLDSDGSFFLVSKLTVDKSRWQQGNVFSCSVMHEALHNHYTQKSLSLSP
heavy 2: not shown
light 1: EVQLLESGGGLVQPGGSLRLSCAASGFTFSTYAMNWVRQAPGKGLEWVSRIRSKYNNYATYYADSVKGRFTISRDDSKNTLYLQMNSLRAEDTAVYYCVRHGNFGNSYVSWFAYWGQGTLVTVSSASVAAPSVFIFPPSDEQLKSGTASVVCLLNNFYPREAKVQWKVDNALQSGNSQESVTEQDSKDSTYSLSSTLTLSKADYEKHKVYACEVTHQGLSSPVTKSFNRGEC
light 2: DIQMTQSPSSLSASVGDRVTITCSASSSVSYMHWYQQKSGKAPKLLIYDTSKLASGVPSRFSGSGSGTDFTLTISSLQPEDFATYYCQQWSKHPLTFGQGTKLEIKRTVAAPSVFIFPPSDRKLKSGTASVVCLLNNFYPREAKVQWKVDNALQSGNSQESVTEQDSKDSTYSLSSTLTLSKADYEKHKVYACEVTHQGLSSPVTKSFNRGEC
B1 was tested, and the “EC50 of T-cell mediated killing of AsPC-1 cells, 24 h (LDH release, human PBMCs, E:T 10:1)” value (human mesothelin [1]) was 308 pM, the “EC50 of T-cell mediated killing of AsPC-1 cells, 48 h (LDH release, human PBMCs, E:T 10:1)” value (human mesothelin [1]) was 100 pM and the “EC50 of T-cell mediated killing of BxPC-3 cells, 24 h (LDH release, human PBMCs, E:T 10:1)” value (human mesothelin [1]) was 55.2 pM. The “EC50 of T-cell mediated killing of BxPC-3 cells, 48 h (LDH release, human PBMCs, E:T 10:1)” value (human mesothelin [1]) was 19.5 pM, the “EC50 of T-cell mediated killing of NCI-H596 cells, 24 h (LDH release, human PBMCs, E:T 10:1)” value (human mesothelin [1]) was 100 pM and the “EC50 of T-cell mediated killing of NCI-H596 cells, 48 h (LDH release, human PBMCs, E:T 10:1)” value (human mesothelin [1]) was 143 pM. For the same binder, the “EC50 of T-cell mediated lysis of AsPC-1 cells, 48 h (LDH release)” value (“EC50 … of AsPC-1 cells, 48 h (LDH release)” for short) (human mesothelin [2]) was 76.2 pM, the “EC50 of T-cell mediated lysis of BxPC-3 cells, 48 h (LDH release)” value (“EC50 … of BxPC-3 cells, 48 h (LDH release)” for short) (human mesothelin [2]) was 88.1 pM and the “EC50 of T-cell mediated lysis of NCI-H596 cells, 24 h (LDH release)” value (human mesothelin [2]) was 25.1 pM. For the same binder, the “EC50 of T-cell mediated lysis of NCI-H596 cells, 48 h (LDH release)” value (“EC50 … of NCI-H596 cells, 48 h (LDH release)” for short) (human mesothelin [2]) was 97.1 pM, the “EC50 … of AsPC-1 cells, 48 h (LDH release)” value (human mesothelin [3]) was 146 pM and the “EC50 … of BxPC-3 cells, 48 h (LDH release)” value (human mesothelin [3]) was 57.7 pM. The “EC50 … of NCI-H596 cells, 48 h (LDH release)” value (human mesothelin [3]) was 149 pM, the “EC50 … of AsPC-1 cells, 48 h (LDH release)” value (human mesothelin [4]) was roughly 498 pM and the “EC50 … of BxPC-3 cells, 48 h (LDH release)” value (human mesothelin [4]) was 258 pM. The “EC50 … of NCI-H596 cells, 48 h (LDH release)” value (human mesothelin [4]) was 313 pM, the “EC50 of CD69 up-regulation on CD4 T cells (% CD4+CD69+), AsPC-1 target cells, 72 h (FACS)” value (human mesothelin [5]) was 131 pM and the “EC50 of CD69 up-regulation on CD4 T cells (% CD4+CD69+), BxPC-3 target cells, 72 h (FACS)” value (human mesothelin [5]) was 7.52 pM. For the same binder, the “EC50 of CD69 up-regulation on CD4 T cells (% CD4+CD69+), NCI-H596 target cells, 72 h (FACS)” value (human mesothelin [5]) was 35.2 pM, the “EC50 of CD69 up-regulation on CD8 T cells (% CD8+CD69+), AsPC-1 target cells, 72 h (FACS)” value (human mesothelin [5]) was 93.6 pM and the “EC50 of CD69 up-regulation on CD8 T cells (% CD8+CD69+), BxPC-3 target cells, 72 h (FACS)” value (human mesothelin [5]) was 30.7 pM. For the same binder, the “EC50 of CD69 up-regulation on CD8 T cells (% CD8+CD69+), NCI-H596 target cells, 72 h (FACS)” value (human mesothelin [5]) was 47.6 pM, the “EC50 of CD69 up-regulation on CD4 T cells (% CD4+CD69+), AsPC-1 target cells, 48 h (FACS)” value (human mesothelin [6]) was 174 pM and the “EC50 of CD69 up-regulation on CD4 T cells (% CD4+CD69+), BxPC-3 target cells, 48 h (FACS)” value (human mesothelin [6]) was 77.4 pM. The “EC50 of CD69 up-regulation on CD4 T cells (% CD4+CD69+), NCI-H596 target cells, 48 h (FACS)” value (human mesothelin [6]) was 41.2 pM, the “EC50 of CD69 up-regulation on CD8 T cells (% CD8+CD69+), AsPC-1 target cells, 48 h (FACS)” value (human mesothelin [6]) was 137 pM and the “EC50 of CD69 up-regulation on CD8 T cells (% CD8+CD69+), BxPC-3 target cells, 48 h (FACS)” value (human mesothelin [6]) was 97.7 pM. The “EC50 of CD69 up-regulation on CD8 T cells (% CD8+CD69+), NCI-H596 target cells, 48 h (FACS)” value (human mesothelin [6]) was 78.3 pM, the “EC50 of CD69 up-regulation on CD4 T cells (% CD4+CD69+), AsPC-1 target cells (FACS)” value (human mesothelin [7]) was 513 pM and the “EC50 of CD69 up-regulation on CD4 T cells (% CD4+CD69+), BxPC-3 target cells (FACS)” value (human mesothelin [7]) was 59.8 pM. For the same binder, the “EC50 of CD69 up-regulation on CD4 T cells (% CD4+CD69+), NCI-H596 target cells (FACS)” value (human mesothelin [7]) was 77.4 pM, the “EC50 of CD69 up-regulation on CD8 T cells (% CD8+CD69+), AsPC-1 target cells (FACS)” value (human mesothelin [7]) was 546 pM and the “EC50 of CD69 up-regulation on CD8 T cells (% CD8+CD69+), BxPC-3 target cells (FACS)” value (human mesothelin [7]) was roughly 118 pM. The “EC50 of CD69 up-regulation on CD8 T cells (% CD8+CD69+), NCI-H596 target cells (FACS)” value (human mesothelin [7]) was 146 pM, the binding result (human CD3) was “binds” and the EC50 (human mesothelin [8]) was 7760 pM. It also gave an EC50 (cynomolgus mesothelin) of 5500 pM and an EC50 (human mesothelin [9]) of 1440 pM.
